Data published in paper PMC6294903 (Proceedings of the National Academy of Sciences of the …, 2018).

T1: DnaJ C268A (Salmonella enterica serovar Typhimurium, UniProt P0A1G7 1-379, C268A)
T1 sequence (looked up): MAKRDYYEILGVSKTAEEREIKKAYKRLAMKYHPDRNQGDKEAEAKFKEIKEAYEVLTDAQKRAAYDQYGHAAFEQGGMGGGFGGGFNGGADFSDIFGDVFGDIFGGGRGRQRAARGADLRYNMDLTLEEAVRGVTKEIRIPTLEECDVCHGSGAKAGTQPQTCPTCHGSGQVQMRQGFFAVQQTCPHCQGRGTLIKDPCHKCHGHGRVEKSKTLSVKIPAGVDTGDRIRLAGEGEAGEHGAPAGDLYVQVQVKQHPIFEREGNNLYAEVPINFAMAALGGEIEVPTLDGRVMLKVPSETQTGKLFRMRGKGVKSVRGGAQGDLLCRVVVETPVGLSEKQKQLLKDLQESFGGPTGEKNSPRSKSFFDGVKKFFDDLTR

B1: GST-DksA (wild type, pull-down done in the absence of DTT) (natural protein, Salmonella enterica serovar Typhimurium, UniProt P0A1G5 1-151, looked up)
chain: MQEGQNRKTSSLSILAIAGVEPYQEKPGEEYMNEAQLSHFKRILEAWRNQLRDEVDRTVTHMQDEAANFPDPVDRAAQEEEFSLELRNRDRERKLIKKIEKTLKKVEDEDFGYCESCGVEIGIRRLEARPTADLCIDCKTLAEIREKQMAG

Key:
[1] = target: DnaJ-6His (Salmonella enterica serovar Typhimurium) (UniProt P0A1G7); experiment: MST
[2] = target: T1, DnaJ C268A; experiment: pull-down

Row | Molecule | Kd [1] [nM] | binding result [2]
1 | oxidized DksA (recombinant, GST removed) (from UniProt P0A1G5 1-151) (natural protein) | 65 | 
2 | B1 |  | binds
